From patent US20200079855A1 (Pfizer, published 2020)

Assays:
[1] = target: T1, recombinant human αvβ6 integrin (human, UniProt P06756 31-992; P18564 22-707); test: SPR (Biacore), recombinant integrin immobilised
T1 construct: Used in ELISA and immobilised on the Biacore chip; construct not described; also called hαvβ6; AVB6
Procedure: (§1) To evaluate the specificity of ADWA11 2.4, recombinant human αvβ6 and αvβ3 were immobilized on a Biacore chip and binding of the parental murine and humanized mAb variant of ADWA11 2.4 was determined.

[2] = target: T2, recombinant human αvβ3 integrin (human, UniProt P06756 31-992; P05106 27-718); test: SPR (Biacore), recombinant integrin immobilised
T2 construct: Used in ELISA and immobilised on the Biacore chip; construct not described; also called hαvβ3; AVB3
Procedure: as §1

[3] = target: T3, mouse αvβ8 integrin on C8-S cells (mouse, UniProt P43406 31-1044; Q0VBD0 22-767); test: flow cytometry, IgG binding to C8-S cells (MFI PE-A), right panel ADWA11_IgG_C8-S cell binding; EC50 unit inferred, axis Log10 [mAb] nM
T3 construct: Endogenous αvβ8 of C8-S mouse astrocyte cells; also called C8-S (mouse astrocyte); C8-S (mouse avb8)
Procedure: (§2) 100,000 cells were incubated with a dilution series of the anti-αvβ8 or human IgG1_3 mut Isotype antibody for three to four hours on ice. The cells were spun down for five minutes at 300 g force. The cells were then washed three times with wash buffer (PBS+0.2% BSA) to remove excess unbound antibodies. After thorough washing, cells were incubated with Fab′2 anti-human Fc-PE (Invitrogen) or goat Fab′2 anti-mouse-APC (Jackson Labs) at 1:1000 dilution along with LIVE/DEAD fixable cell stain (Invitrogen) at 1:2000 to distinguish live cells. The whole content was incubated for 30 minutes on ice. After washing, the stained cells were analyzed on BD biosciences Fortessa flow cytometer (gated for live cells) using FlowJo analysis software. The mean fluorescence intensities (MFI) at different antibody concentrations were plotted for various antibodies.
(§3) The apparent-affinity of ADWA11 2.4 for U251 (human glioblastoma) or C8-S (mouse astrocyte) cells was also evaluated in a cell-binding assay, according to the methods as generally described herein. Briefly, cells were incubated with a serial dilution of ADWA11 2.4 for 4 hours on ice, followed by detection on bound antibody with an anti-human-PE secondary antibody, and analyzed by flow cytometry.

[4] = target: T3, mouse αvβ8 integrin on C8-S cells; test: flow cytometry on C8-S cells
Procedure: as §2, §3

[5] = target: T4, human αvβ5 integrin on HEK293-F cells (human, UniProt P06756 31-1048; P18084 24-799); test: flow cytometry, titration of ADWA11 2.4 on HEK cells overexpressing human integrin β5 (gMFI minus secondary), right panel
T4 construct: whole, on cells; HEK293-F cells transiently expressing the full length beta subunit; also called HEK cells expressing αvβ5
Procedure: (§4) For cell-binding experiments with HEK293-F cells overexpressing human αvβ3, αvβ5, αvβ6, αvβ8. HEK293-F cells transiently expressing full length human integrin beta 3 (Accession No. NP_000203.2), human integrin beta 5 (Accession No. NP_002204.2), human integrin beta 6 (Accession No. NP_000879.2), or human integrin beta 8 (Accession No. NP_002205.1) were prepared using proprietary vectors and vendor provided protocols. Cells were harvested after 4 days and analyzed for integrin expression. To characterize Integrin αvβ3, αvβ5, αvβ6, αvβ8 expression 100,000 cells were incubated in the indicated commercially available or directly conjugated proprietary antibodies for 30 minutes, along with LIVE/DEAD fixable cell stain (Invitrogen) at 1:2000 to distinguish live cells. Cells were spun down for five minutes at 300 g force. The cells were then washed twice with wash buffer (PBS+0.2% BSA) to remove excess unbound antibodies and ananalysed on BD biosciences Fortessa flow cytometer
(§5) 100,000 cells were incubated with a dilution series of the anti-αvβ8 or human IgG1_3 mut Isotype antibody for three to four hours on ice. […] After washing, the stained cells were analyzed on BD biosciences Fortessa flow cytometer (gated for live cells) using FlowJo analysis software. The mean fluorescence intensities (MFI) at different antibody concentrations were plotted for various antibodies.

[6] = target: T5, human αvβ8 integrin on HEK293-F cells (human, UniProt P06756 31-1048; P26012 43-769); test: flow cytometry, titration on HEK cells overexpressing human integrin β8, right panel
T5 construct: whole, on cells; HEK293-F cells transiently expressing the full length beta subunit; also called HEK cells expressing αvβ8
Procedure: as §4, §5

[7] = target: T6, human αvβ8 integrin on U251 cells (human, UniProt P06756 31-1048); test: cell-based or functional assay
[8] = target: T6, human αvβ8 integrin on U251 cells; test: flow cytometry on U251 cells
[9] = target: T6, human αvβ8 integrin on U251 cells
[10] = target: T6, human αvβ8 integrin on U251 cells; test: flow cytometry, IgG binding to U251 cells (MFI PE-A), left panel ADWA11_IgG_U251 cell binding; EC50 unit inferred, axis Log10 [mAb] nM
[11] = target: T6, human αvβ8 integrin on U251 cells; test: flow cytometry on live U251 cells, 4 hours on ice, anti-human-PE secondary, n=3
[12] = target: T7, human αvβ3 integrin on HEK293-F cells (human, UniProt P06756 31-1048; P05106 27-788); test: flow cytometry, titration of ADWA11 2.4 on HEK cells overexpressing human integrin β3 (gMFI minus secondary), right panel
T7 construct: whole, on cells; HEK293-F cells transiently expressing the full length beta subunit; also called HEK cells expressing αvβ3
Procedure: as §4, §5

[13] = target: T8, human αvβ6 integrin on HEK293-F cells (human, UniProt P06756 31-1048; P18564 22-788); test: flow cytometry, titration of ADWA11 2.4 on HEK cells overexpressing human integrin β6 (gMFI minus secondary), right panel
T8 construct: whole, on cells; HEK293-F cells transiently expressing the full length beta subunit; also called HEK cells expressing αvβ6
Procedure: as §4, §5

[14] = target: T3, mouse αvβ8 integrin on C8-S cells; test: cell-based or functional assay

T3 sequence (P43406 31-1044 limits assumed, chain 1 of 2): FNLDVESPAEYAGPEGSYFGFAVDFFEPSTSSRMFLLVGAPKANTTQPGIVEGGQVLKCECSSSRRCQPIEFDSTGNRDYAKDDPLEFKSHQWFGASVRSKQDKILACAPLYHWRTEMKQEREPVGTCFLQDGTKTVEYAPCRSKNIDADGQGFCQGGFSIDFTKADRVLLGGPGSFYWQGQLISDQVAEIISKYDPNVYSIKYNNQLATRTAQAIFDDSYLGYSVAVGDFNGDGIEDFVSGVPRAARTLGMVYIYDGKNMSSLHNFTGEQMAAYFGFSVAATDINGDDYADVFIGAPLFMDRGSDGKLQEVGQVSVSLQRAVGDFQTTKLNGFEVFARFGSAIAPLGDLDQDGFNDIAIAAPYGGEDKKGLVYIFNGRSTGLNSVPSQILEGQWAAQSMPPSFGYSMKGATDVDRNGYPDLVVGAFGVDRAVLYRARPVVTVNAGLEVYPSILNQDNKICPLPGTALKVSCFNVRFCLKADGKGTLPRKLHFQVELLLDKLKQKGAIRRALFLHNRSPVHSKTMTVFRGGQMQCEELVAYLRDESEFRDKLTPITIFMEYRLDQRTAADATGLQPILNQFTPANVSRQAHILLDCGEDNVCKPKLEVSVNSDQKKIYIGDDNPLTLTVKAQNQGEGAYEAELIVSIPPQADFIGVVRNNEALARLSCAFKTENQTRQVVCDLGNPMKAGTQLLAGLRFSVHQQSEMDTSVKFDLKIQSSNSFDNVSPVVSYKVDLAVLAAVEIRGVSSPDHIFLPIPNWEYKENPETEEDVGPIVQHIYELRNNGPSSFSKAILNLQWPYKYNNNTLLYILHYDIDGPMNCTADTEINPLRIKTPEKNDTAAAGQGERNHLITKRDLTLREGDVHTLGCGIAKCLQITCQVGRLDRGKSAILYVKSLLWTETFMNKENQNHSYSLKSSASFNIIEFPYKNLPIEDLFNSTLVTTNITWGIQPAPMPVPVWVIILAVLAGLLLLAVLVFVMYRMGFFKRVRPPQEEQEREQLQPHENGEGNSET
T3 sequence (Q0VBD0 22-767 limits assumed, chain 2 of 2): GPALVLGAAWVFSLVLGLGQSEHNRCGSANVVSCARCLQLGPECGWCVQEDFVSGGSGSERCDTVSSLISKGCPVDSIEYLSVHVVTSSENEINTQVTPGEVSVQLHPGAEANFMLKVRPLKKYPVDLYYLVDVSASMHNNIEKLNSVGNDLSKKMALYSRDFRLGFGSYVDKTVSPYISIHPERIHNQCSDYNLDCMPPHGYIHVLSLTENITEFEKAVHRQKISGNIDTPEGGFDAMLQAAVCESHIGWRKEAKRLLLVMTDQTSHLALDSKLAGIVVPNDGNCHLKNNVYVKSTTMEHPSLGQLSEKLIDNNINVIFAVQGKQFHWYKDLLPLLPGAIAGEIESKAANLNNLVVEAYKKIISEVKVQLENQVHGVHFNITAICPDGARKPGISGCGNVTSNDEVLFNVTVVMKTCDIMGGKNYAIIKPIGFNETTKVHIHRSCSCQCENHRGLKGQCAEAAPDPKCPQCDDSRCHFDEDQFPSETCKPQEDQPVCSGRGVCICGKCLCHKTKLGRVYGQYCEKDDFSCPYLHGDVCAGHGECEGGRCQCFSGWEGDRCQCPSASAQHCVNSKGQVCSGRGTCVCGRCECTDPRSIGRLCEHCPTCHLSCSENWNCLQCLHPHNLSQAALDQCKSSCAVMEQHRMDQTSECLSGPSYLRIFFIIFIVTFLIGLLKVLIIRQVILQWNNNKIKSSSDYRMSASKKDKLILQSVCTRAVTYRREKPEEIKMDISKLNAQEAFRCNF
T1 sequence (P06756 31-992 limits assumed, chain 1 of 2): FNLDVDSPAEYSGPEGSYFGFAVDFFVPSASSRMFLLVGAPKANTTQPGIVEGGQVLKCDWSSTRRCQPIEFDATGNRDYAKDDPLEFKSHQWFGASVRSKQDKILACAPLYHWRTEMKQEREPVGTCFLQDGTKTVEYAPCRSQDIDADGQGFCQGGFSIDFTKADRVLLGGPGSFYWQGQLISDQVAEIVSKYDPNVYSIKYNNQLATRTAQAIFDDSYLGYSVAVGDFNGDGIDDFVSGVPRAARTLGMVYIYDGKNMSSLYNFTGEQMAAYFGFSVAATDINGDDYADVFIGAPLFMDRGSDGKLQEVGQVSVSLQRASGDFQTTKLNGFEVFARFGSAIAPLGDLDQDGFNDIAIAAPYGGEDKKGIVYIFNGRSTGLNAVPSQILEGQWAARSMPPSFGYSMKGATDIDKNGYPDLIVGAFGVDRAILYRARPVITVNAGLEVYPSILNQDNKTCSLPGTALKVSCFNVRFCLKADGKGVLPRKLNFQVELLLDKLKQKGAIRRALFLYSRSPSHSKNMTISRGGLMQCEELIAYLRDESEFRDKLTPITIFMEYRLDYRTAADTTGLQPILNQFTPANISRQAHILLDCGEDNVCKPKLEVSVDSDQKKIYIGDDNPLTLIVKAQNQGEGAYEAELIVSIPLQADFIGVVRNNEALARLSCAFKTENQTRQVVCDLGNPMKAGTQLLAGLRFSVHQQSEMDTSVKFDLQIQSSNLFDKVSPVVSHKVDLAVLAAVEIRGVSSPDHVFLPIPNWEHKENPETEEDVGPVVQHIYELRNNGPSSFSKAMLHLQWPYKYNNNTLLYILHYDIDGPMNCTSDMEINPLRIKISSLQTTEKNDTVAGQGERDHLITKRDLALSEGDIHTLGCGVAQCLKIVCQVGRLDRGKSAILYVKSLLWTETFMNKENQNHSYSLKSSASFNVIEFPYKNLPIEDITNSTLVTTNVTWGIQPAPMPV
T1 sequence (P18564 22-707 limits assumed, chain 2 of 2): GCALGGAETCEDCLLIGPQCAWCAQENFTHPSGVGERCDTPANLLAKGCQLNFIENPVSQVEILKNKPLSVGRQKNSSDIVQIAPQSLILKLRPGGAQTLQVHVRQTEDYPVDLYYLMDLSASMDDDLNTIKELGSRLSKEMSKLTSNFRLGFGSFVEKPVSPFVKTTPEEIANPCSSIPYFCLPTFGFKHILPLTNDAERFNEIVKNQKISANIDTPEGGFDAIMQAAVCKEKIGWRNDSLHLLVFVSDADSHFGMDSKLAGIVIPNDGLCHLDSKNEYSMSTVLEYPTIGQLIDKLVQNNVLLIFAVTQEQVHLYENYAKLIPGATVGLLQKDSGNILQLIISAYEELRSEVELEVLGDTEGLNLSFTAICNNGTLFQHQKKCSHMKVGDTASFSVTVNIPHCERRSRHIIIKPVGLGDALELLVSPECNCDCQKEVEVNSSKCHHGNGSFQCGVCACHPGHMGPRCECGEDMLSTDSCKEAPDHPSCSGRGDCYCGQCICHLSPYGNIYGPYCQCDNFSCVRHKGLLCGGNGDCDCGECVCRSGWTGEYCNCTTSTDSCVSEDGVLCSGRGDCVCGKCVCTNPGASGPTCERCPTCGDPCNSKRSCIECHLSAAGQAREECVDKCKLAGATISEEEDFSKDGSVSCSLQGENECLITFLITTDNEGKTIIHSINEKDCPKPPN
T2 sequence (P06756 31-992 limits assumed, chain 1 of 2): as the sequence (P06756 31-992 limits assumed, chain 1 of 2) above
T2 sequence (P05106 27-718 limits assumed, chain 2 of 2): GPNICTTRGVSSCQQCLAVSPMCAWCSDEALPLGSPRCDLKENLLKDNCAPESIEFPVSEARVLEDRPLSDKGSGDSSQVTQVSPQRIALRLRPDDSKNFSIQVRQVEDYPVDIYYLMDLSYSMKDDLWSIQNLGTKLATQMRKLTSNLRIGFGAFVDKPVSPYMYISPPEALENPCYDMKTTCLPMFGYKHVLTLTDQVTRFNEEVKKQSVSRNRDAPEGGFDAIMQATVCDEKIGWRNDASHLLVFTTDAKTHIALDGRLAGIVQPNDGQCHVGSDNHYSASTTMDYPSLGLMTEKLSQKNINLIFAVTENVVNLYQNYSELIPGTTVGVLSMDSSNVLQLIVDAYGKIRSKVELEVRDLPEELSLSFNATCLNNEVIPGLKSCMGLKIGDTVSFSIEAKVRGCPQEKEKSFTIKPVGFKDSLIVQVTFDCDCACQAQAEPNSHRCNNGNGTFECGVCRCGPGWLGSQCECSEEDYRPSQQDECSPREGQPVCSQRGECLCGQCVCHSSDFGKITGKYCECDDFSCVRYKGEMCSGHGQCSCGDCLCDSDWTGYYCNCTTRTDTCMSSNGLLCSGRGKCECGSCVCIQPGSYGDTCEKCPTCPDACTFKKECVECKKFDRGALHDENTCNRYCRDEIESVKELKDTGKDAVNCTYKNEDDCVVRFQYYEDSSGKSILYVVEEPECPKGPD

B1: ADWA11 2.4 (IgG) (antibody, V domains shown)
VH: EVQLVESGGGLVQPGGSLRLSCAASGFNIKDYYMNWVRQAPGKGLEWVGWIDPDQGNTIYEPKFQGRFTISADTSKNSAYLQMNSLRAEDTAVYYCARRLLMDYWGQGTLVTVSS
VL: DIQMTQSPSSLSASVGDRVTITCRSTKSLSHFNGNTYLFWYQQKPGKAPKRLIYYMSSLASGVPSRFSGSGSGTDFTLTISSLQPEDFATYYCQQSLEYPFTFGGGTKVEIKR
notes: Human IgG1 effectorless (L234A, L235A, G237A), kappa; also called ADWA11 VH05-2/VK01(2.4); ADWA11_VH05-2_VK01(2.4)
[1]
  binding result: no binding
[2]
  binding result: no binding
[3]
  EC50: 0.115 nM
[4]
  EC50: 0.145 nM
[5]
  binding result: no binding (tested: 100 nM)
[6]
  EC50 (read off the curve): ~2 nM
[7]
  IC50 in the TGFβ transactivation assay with U251 cells: 0.199 nM
[8]
  EC50: 0.256 nM
[9]
  IC50 (read off the curve): 0.1 nM
[10]
  EC50: 0.105 nM
[11]
  EC50: 0.126 nM
[12]
  binding result: no binding (tested: 100 nM)
[13]
  binding result: no binding (tested: 100 nM)
[14]
  IC50 (read off the curve): ~0.2 nM
